# From patent US20240043859A1, “HERBICIDE-RESISTANT PROTEIN, AND GENE AND USE THEREOF” (QINGDAO KINGAGROOT CHEMICAL COMPOUND CO., LTD., priority 2020, published 2024)
# “Also recorded” adds a separate entry of the source.
# B1: QYD42: AAD-like enzyme, SEQ ID NO. 83; expressed from vectors pQY2309 (Arabidopsis), pQY2329 (maize), pQY2330 (soybean) (protein)
# chain: MQITPIADATFGATVTGLRLATLDDAGFARLHAAWLQHALLVFPGQFLTNAEQIGFAKRFGPIERIGGGDIVAISNVKADGTVRQHSPAEWDDMMKVIVGNMAWHADSTYMPVMAQGAVFSAEVVPPTGGRTCFADMRAAYDALDDATRALVHQRSARHSLVYSQSKLGHVQQAGSAYVGYGMDTTATPLRPLVKRHPETGRLSLLIGRHAHAIPGLEEAESERFLEDLVAWACQPPRVVAHHWTAGDVVLWDNRCLLHRAEPWDFTLPRVMWHSRLAGHPETEAAPLV
# modifications: Synthetic polypeptide, QYD42, D42
# Experiments:
# [1] = format: cell-based, Escherichia coli
# soybean William82 = assay: Spray testing of transgenic soybean T1 seedlings; format: in vivo; details: 2,4-D 4.48 kg/ha foliage spray, 10 days after spraying
# Source text: 1. Vector construction: the pQY2330 vector (see FIG. 8-1) was used as the overexpression vector, containing a Bar resistance gene that can be used as a selection marker for glufosinate. The AAD-like gene, QYD42, SEQ ID NO. 83, was linked to the Xho I restriction site by seamless cloning to construct the transgenic expression vector pQY2330, of which the expression cassette consisted of a double CaMV35S promoter, the AAD-like gene QYD42 and a […] Nos terminator.
# 2. Genetic transformation of soybeans: Soybean transformation was carried out using the Agrobacterium-mediated cotyledon nodes transformation method (Pareddy D, Chennareddy S, Anthony G, et al. Improved soybean transformation for efficient and high throughput transgenic production[J]. Transgenic Research, 2020, 29(968)). A monoclone of the Agrobacterium (EHA105) comprising the overexpression vector pQY2330 was inoculated into 5 ml YEP liquid medium (containing 25 mg/L Rifampicin and 50 mg/L Kanamycin) and shaking-cultured at 220 rmp/min, 28° C. for 8 hours. And then 0.2-0.3 ml bacteria solution was transferred to 200 ml YEP liquid medium (containing 25 mg/L Rifampicin and 50 mg/L Kanamycin) and shaking-cultured at 220 rmp/min, 28° C. overnight until the bacteria reached the exponential growth stage, then centrifuged at 4000 rmp/min for 20 min to collect the cells into a 50 ml centrifuge tube (sterilized). […]
molecule,measurement,setting,value
B1,Chromogenic reaction of degrading herbicides in bacteria: MCPA,[1],Yes
same,"Resistance of T1 transgenic soybean to 2,4-D (spray)",soybean William82,no phytotoxicity; also recorded: remains normal
